The source of these data is US20100273988A1 (Chugai, published 2010).

Experiment [1] addresses HB-EGF protein (R&D Systems, Inc., 259-HE) (human, UniProt Q99075 63-148). As to the kind of experiment: cell-based or functional assay.
The target in experiment [2] is proHB-EGF mutated at the protease cleavage site, expressed on Ba/F3 cells (HB-EGF_Ba/F3) (human) (UniProt Q99075). The experiment can be described thus: flow cytometry, hybridoma culture supernatant on HB-EGF_Ba/F3 cells, FITC-anti-mouse IgG; EXP. 2 (no-mAb control 6.9). In general terms: Flow cytometry measures light scatter and fluorescence of single cells or particles in a stream.

For experiment [3] the target is unchanged. As to the kind of experiment: flow cytometry, hybridoma culture supernatant on HB-EGF_Ba/F3 cells, FITC-anti-mouse IgG; EXP. 1 (no-mAb control 19.1).

Sequence of proHB-EGF mutated at the protease cleavage site, expressed on Ba/F3 cells (HB-EGF_Ba/F3) (human) (Q99075 20-208 limits assumed, change not shown): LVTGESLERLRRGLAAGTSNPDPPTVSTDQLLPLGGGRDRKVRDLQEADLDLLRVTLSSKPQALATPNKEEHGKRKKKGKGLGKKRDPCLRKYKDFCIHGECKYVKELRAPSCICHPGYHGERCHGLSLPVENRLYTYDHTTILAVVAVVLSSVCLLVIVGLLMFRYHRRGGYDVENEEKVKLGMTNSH
Sequence of HB-EGF protein (R&D Systems, Inc., 259-HE) (Q99075 63-148 limits assumed): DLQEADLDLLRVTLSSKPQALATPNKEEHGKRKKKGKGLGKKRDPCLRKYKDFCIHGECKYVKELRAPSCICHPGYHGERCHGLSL

B1: HC-15 (antibody, V domains shown)
VH: EVQLQQSGPELVKPGASVKISCKASGYSFTGYYMHWVKQSPEKRLEWIGEINPRTGITTYNQKFKAKATLTVDKSSSTAYMQLKSLTSEDSAVYYCARVGSSGPFTYWGQGTLVTVSA
VL: DIVMTQSPSSLSVSAGDKVTMSCKSSQSLLNSRNQKNYLAWYQQKPWQPPKLLIYGASTRESGVPDRFTGSGSGTDFTLTISSVQAEDLAVYYCQNDYSYPFTFGTGTKLEIK
Take B1: the “EC50 (nM) of the growth-inhibiting effect on EGFR_Ba/F3 cells in the presence of HB-EGF (80 ng/mL)” value in experiment [1] came to 3.8 nM. In addition, the figures for the FACS (GEO-mean) in experiment [2] and in experiment [3] were 234 GEO-mean and 594 GEO-mean, respectively.
